{
  "source": "patent US20240343800A1",
  "about": "(Merck KGaA, published 2024)",
  "binders": {"B1": {"name": "82H02 scFv-Fc (Fc fusion)", "VH": "EVQLLESGGGLVQPGGSLRLSCAASGFTFTSYAMSWVRQAPGKGLEWVSTISGSGGGTYYTDSVKGRFTISRDNSKNTLYLQMNSLRAEDTAVYYCAQGSSIFDYWGQGTLVTVSS", "VL": "EIVLTQSPATLSLSPGERATLSCRASQSVSSYLAWYQQKPGQAPRLLIYDASNRATGIPARFSGSGSGTDFTLTISSLEPEDFAVYYCQQRSNWPPCTFGQGTRLEIK", "notes": "scFv-Fc format; also called unlabelled 82H02 scFv-Fc"}, "B2": {"name": "bispecific TCE 69A02 in Format 1A (bispecific antibody)", "heavy 1": "EVQLVESGGGLVQPGGSLRLSCAASGFTFNTYAMNWVRQAPGKGLEWVARIRSKYNNYATYYADSVKDRFTISRDDSKNTLYLQMNSLRAEDTAVYYCVRHGNFGNSYVSWFAYWGQGTMVTVSSASTKGPSVFPLAPSSKSTSGGTAALGCLVKDYFPEPVTVSWNSGALTSGVHTFPAVLQSSGLYSLSSVVTVPSSSLGTQTYICNVNHKPSNTKVDKKVEPKSCDKTHTCPPCPAPPVAGPSVFLFPPKPKDTLMISRTPEVTCVVVDVSHEDPEVKFNWYVDGVEVHNAKTKPREEQYNSTYRVVSVLTVLHQDWLNGKEYKCAVSNKALAAPIEKTISKAKGQPFRPEVHLLPPSREEMTKNQVSLTCLARGFYPKDIAVEWESNGQPENNYKTTPSRQEPSQGTTTFAVTSKLTVDKSRWQQGNVFSCSVMHEALHNHYTQKTISLSPGK", "heavy 2": "ETTLTQSPATLSVSPGETATLSCRASQSVSSNLAWYQQKPGQAPRLLIYGASTRATGIPATFSGSGSGTEFTLTISSLQSEDFAIYYCQQYKNWPPAFGGGTELEIKGGGGSGGGGSGGGGSGGGGSQVTLKESGPTLVKPTQTLTLTCSFSGFSITTSGVSVGWIRQPPGKALEWLALIYWDDDKRYSPSLKSRLTITRDTSKNQVVLTMTNMDPVDTATYYCAHAPRYTPGGYFDYWGQGTLVTVSSEPKSSDKTHTCPPCPAPPVAGPSVFLFPPKPKDTLMISRTPEVTCVVVDVSHEDPEVKFNWYVDGVEVHNAKTKPREEQYNSTYRVVSVLTVLHQDWLNGKEYKCAVSNKALAAPIEKTISKAKGQPREPQVYTLPPPSEELALNELVTLTCLVKGFYPSDIAVEWLQGSQELPREKYLTWAPVLDSDGSFFLYSILRVAAEDWKKGDTFSCSVMHEALHNRFTQKSLDRSPGKGGGGSGGGGSGGGGSGGGGSETTLTQSPATLSVSPGETATLSCRASQSVSSNLAWYQQKPGQAPRLLIYGASTRATGIPATFSGSGSGTEFTLTISSLQSEDFAIYYCQQYKNWPPAFGGGTELEIKGGGGSGGGGSGGGGSGGGGSQVTLKESGPTLVKPTQTLTLTCSFSGFSITTSGVSVGWIRQPPGKALEWLALIYWDDDKRYSPSLKSRLTITRDTSKNQVVLTMTNMDPVDTATYYCAHAPRYTPGGYFDYWGQGTLVTVSS", "light": "QAVVTQEPSLTVSPGGTVTLTCRSSTGAVTTSNYANWVQQKPGQAPRGLIGGTNKRAPGTPARFSGSLLGGKAALTLSGVQPEDEAEYYCALWYSNLWVFGGGTKLTVLGQPKAAPSVTLFPPSSEELQANKATLVCLISDFYPGAVTVAWKADSSPVKAGVETTTPSKQSNNKYAASSYLSLTPEQWKSHRSYSCQVTHEGSTVEKTVAPTECS", "notes": "also called 69A02 TCE 1A; 69A02x1F3.5"}, "B3": {"name": "bispecific TCE 69A02 in Format 1B (bispecific antibody)", "heavy 1": "ETTLTQSPATLSVSPGETATLSCRASQSVSSNLAWYQQKPGQAPRLLIYGASTRATGIPATFSGSGSGTEFTLTISSLQSEDFAIYYCQQYKNWPPAFGGGTELEIKGGGGSGGGGSGGGGSGGGGSQVTLKESGPTLVKPTQTLTLTCSFSGFSITTSGVSVGWIRQPPGKALEWLALIYWDDDKRYSPSLKSRLTITRDTSKNQVVLTMTNMDPVDTATYYCAHAPRYTPGGYFDYWGQGTLVTVSSEPKSSDKTHTCPPCPAPPVAGPSVFLFPPKPKDTLMISRTPEVTCVVVDVSHEDPEVKFNWYVDGVEVHNAKTKPREEQYNSTYRVVSVLTVLHQDWLNGKEYKCAVSNKALAAPIEKTISKAKGQPFRPEVHLLPPSREEMTKNQVSLTCLARGFYPKDIAVEWESNGQPENNYKTTPSRQEPSQGTTTFAVTSKLTVDKSRWQQGNVFSCSVMHEALHNHYTQKTISLSPGKGGGGSGGGGSGGGGSGGGGSEVQLVESGGGLVQPGGSLRLSCAASGFTFNTYAMNWVRQAPGKGLEWVARIRSKYNNYATYYADSVKDRFTISRDDSKNTLYLQMNSLRAEDTAVYYCVRHGNFGNSYVSWFAYWGQGTMVTVSSASTKGPSVFPLAPSSKSTSGGTAALGCLVKDYFPEPVTVSWNSGALTSGVHTFPAVLQSSGLYSLSSVVTVPSSSLGTQTYICNVNHKPSNTKVDKKVEPKSS", "heavy 2": "ETTLTQSPATLSVSPGETATLSCRASQSVSSNLAWYQQKPGQAPRLLIYGASTRATGIPATFSGSGSGTEFTLTISSLQSEDFAIYYCQQYKNWPPAFGGGTELEIKGGGGSGGGGSGGGGSGGGGSQVTLKESGPTLVKPTQTLTLTCSFSGFSITTSGVSVGWIRQPPGKALEWLALIYWDDDKRYSPSLKSRLTITRDTSKNQVVLTMTNMDPVDTATYYCAHAPRYTPGGYFDYWGQGTLVTVSSEPKSSDKTHTCPPCPAPPVAGPSVFLFPPKPKDTLMISRTPEVTCVVVDVSHEDPEVKFNWYVDGVEVHNAKTKPREEQYNSTYRVVSVLTVLHQDWLNGKEYKCAVSNKALAAPIEKTISKAKGQPREPQVYTLPPPSEELALNELVTLTCLVKGFYPSDIAVEWLQGSQELPREKYLTWAPVLDSDGSFFLYSILRVAAEDWKKGDTFSCSVMHEALHNRFTQKSLDRSPGK", "light": "QAVVTQEPSLTVSPGGTVTLTCRSSTGAVTTSNYANWVQQKPGQAPRGLIGGTNKRAPGTPARFSGSLLGGKAALTLSGVQPEDEAEYYCALWYSNLWVFGGGTKLTVLGQPKAAPSVTLFPPSSEELQANKATLVCLISDFYPGAVTVAWKADSSPVKAGVETTTPSKQSNNKYAASSYLSLTPEQWKSHRSYSCQVTHEGSTVEKTVAPTECS", "notes": "also called 69A02 TCE 1B; 1B_69A02x1F3.5 (1B)"}},
  "key": {"human ROR1 (on cells) [1]": {"biological_target": "T1, human ROR1 (on cells) (human, UniProt Q01973 30-937)", "T1 construct": "Entry given with its signal peptide; also called hROR1; huROR1", "test": "flow cytometry competition on NCCIT cells: pre-treatment with titrated unlabelled scFv-Fc, then 146 nM 82H02 scFv-Fc labelled with Alexa Fluor 647-conjugated Zenon fragments"}, "[2]": {"biological_target": "T2, cynomolgus CD3 (on cynomolgus pan-T cells) (cynomolgus, UniProt Q95LI5 22-198)", "T2 construct": "whole, on cells", "T2 sequence (Q95LI5 22-198)": "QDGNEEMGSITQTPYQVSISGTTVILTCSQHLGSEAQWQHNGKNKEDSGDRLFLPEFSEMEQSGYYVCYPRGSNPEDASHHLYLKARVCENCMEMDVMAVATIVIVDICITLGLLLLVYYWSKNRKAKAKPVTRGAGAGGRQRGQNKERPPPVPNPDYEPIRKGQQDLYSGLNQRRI", "test": "flow cytometry, cynomolgus pan-T cells", "experimental": "(§1) After washing twice with 200 μL of phosphate buffered saline (PBS) by centrifugation at 500×g for 5 minutes at room temperature, the cells were resuspended in 100 μL of Live/Dead fixable green working buffer (ThermoFisher Scientific, Cat No: L23101; one vial of Live/Dead fixable green powder was dissolved into 50 μL of DMSO and 1 μL of dissolved Live/Dead fixable green was added to 1 mL of PBS to prepare the working buffer). After 15-minutes of incubation at room temperature, the cells were washed twice with 200 μL of PBS by centrifugation at 500×g for 5 minutes at room temperature and resuspended in […] of 10% goat serum in BD staining buffer (BD Biosciences, Cat No: 554657). […] The plates were then covered with foil to avoid direct light and incubated for 60 minutes at 4° C. […] After incubating for 30 minutes at 4° C., the cells were washed twice with 200 μL of PBS by centrifugation at 500×g for 5 minutes at room temperature and resuspended into 100 μL of fixation buffer (BioLegend, Cat No: 420801). The samples were then analyzed on a flow cytometer for binding signal using FlowJo software. ROR and CD3 binding EC₅₀s (concentration vs mean fluorescence intensity (MFI)) for reference molecules and test bispecific TCEs were obtained using 4-parameter non-linear regression curve fitting in GraphPad Prism."}, "[3]": {"biological_target": "T3, human CD3 (on Jurkat T cells or human CD8+ T cells) (human, UniProt P07766 23-207; P09693 23-182; P04234 22-171; P20963 22-164)", "T3 construct": "Entries are printed with signal peptides; also called huCD3; CD3ε", "T3 sequence (P07766 23-207 limits assumed, chain 1 of 4)": "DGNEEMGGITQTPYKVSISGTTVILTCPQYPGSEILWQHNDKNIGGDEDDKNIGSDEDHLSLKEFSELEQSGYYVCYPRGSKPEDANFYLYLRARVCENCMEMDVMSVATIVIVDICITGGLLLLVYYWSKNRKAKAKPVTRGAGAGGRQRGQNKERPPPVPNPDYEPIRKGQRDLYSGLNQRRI", "T3 sequence (P09693 23-182 limits assumed, chain 2 of 4)": "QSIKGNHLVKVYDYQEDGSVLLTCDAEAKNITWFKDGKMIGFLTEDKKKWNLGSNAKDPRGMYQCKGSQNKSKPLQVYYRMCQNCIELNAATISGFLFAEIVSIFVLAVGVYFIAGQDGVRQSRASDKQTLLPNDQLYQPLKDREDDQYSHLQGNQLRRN", "T3 sequence (P04234 22-171 limits assumed, chain 3 of 4)": "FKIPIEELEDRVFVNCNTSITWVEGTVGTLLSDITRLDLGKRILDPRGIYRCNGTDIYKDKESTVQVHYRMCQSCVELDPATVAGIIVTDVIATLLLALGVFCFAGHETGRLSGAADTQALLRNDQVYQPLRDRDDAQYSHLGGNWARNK", "T3 sequence (P20963 22-164 limits assumed, chain 4 of 4)": "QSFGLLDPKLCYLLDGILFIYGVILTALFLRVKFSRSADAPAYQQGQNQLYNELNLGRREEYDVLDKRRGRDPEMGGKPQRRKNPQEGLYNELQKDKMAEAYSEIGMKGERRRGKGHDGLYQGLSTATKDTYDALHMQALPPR", "test": "flow cytometry, Jurkat T cells", "experimental": "as §1"}, "human ROR1 (on cells) [4]": {"biological_target": "T1, human ROR1 (on cells)", "test": "cell-based or functional assay"}, "human ROR1 (on cells) [5]": {"biological_target": "T1, human ROR1 (on cells)", "test": "cell-based or functional assay", "remark": "listed apart in the source"}, "human ROR1 (on cells) [6]": {"biological_target": "T1, human ROR1 (on cells)", "test": "cell-based or functional assay", "remark": "listed apart in the source"}, "human ROR1 (on cells) [7]": {"biological_target": "T1, human ROR1 (on cells)", "test": "flow cytometry, MDA-MB-231 cells", "experimental": "as §1"}, "human ROR1 (on cells) [8]": {"biological_target": "T1, human ROR1 (on cells)", "test": "flow cytometry, MDA-MB-231 cells; reference: Ref. Frz-binding TCE", "experimental": "as §1"}, "human ROR1 (on cells) [9]": {"biological_target": "T1, human ROR1 (on cells)", "test": "cell-based or functional assay", "remark": "listed apart in the source"}, "[10]": {"biological_target": "T3, human CD3 (on Jurkat T cells or human …)", "test": "flow cytometry; reference: 69A02 TCE in Format 1A", "experimental": "The plates were then covered with foil to avoid direct light and incubated for 60 minutes at 4° C. […] After incubating for 30 minutes at 4° C., the cells were washed twice with 200 μL of PBS by centrifugation at 500×g for 5 minutes at room temperature and resuspended into 100 μL of fixation buffer (BioLegend, Cat No: 420801). The samples were then analyzed on a flow cytometer for binding signal using FlowJo software. ROR and CD3 binding EC₅₀s (concentration vs mean fluorescence intensity (MFI)) for reference molecules and test bispecific TCEs were obtained using 4-parameter non-linear regression curve fitting in GraphPad Prism."}},
  "data": [
    {"binder": "B1", "values": [
      {"measurement": "IC50 (read off the curve)", "setting": "human ROR1 (on cells) [1]", "result": "~2", "unit": "nM"}
    ]},
    {"binder": "B2", "values": [
      {"measurement": "EC50", "setting": "[2]", "result": 13.4, "unit": "nM"},
      {"measurement": "EC50", "setting": "[3]", "result": 10.4, "unit": "nM"},
      {"measurement": "IFNγ release EC50, PBMCs + ROR1+ MDA-MB-231 cells", "setting": "human ROR1 (on cells) [4]", "result": 0.0876, "unit": "nM"},
      {"measurement": "EC50 of target cell killing (TDCC), human CD8+ T cells + ROR1+ MDA-MB-231", "setting": "human ROR1 (on cells) [5]", "result": 0.0202, "unit": "nM"},
      {"measurement": "EC50 of IFNγ release, human CD8+ T cells + ROR1+ MDA-MB-231", "setting": "human ROR1 (on cells) [6]", "result": 0.0215, "unit": "nM"},
      {"measurement": "EC50", "setting": "human ROR1 (on cells) [7]", "result": 0.23, "unit": "nM"},
      {"measurement": "fold higher apparent binding affinity", "setting": "human ROR1 (on cells) [8]", "result": "> 30", "unit": "fold"},
      {"measurement": "TDCC EC50, PBMCs + ROR1+ MDA-MB-231 cells", "setting": "human ROR1 (on cells) [9]", "result": 0.0194, "unit": "nM"}
    ]},
    {"binder": "B3", "values": [
      {"measurement": "EC50", "setting": "[2]", "result": 17.6, "unit": "nM"},
      {"measurement": "EC50", "setting": "[3]", "result": 35.9, "unit": "nM"},
      {"measurement": "IFNγ release EC50, PBMCs + ROR1+ MDA-MB-231 cells", "setting": "human ROR1 (on cells) [4]", "result": 2.09, "unit": "nM"},
      {"measurement": "EC50 of target cell killing (TDCC), human CD8+ T cells + ROR1+ MDA-MB-231", "setting": "human ROR1 (on cells) [5]", "result": 0.0356, "unit": "nM"},
      {"measurement": "EC50 of IFNγ release, human CD8+ T cells + ROR1+ MDA-MB-231", "setting": "human ROR1 (on cells) [6]", "result": 0.0289, "unit": "nM"},
      {"measurement": "EC50", "setting": "human ROR1 (on cells) [7]", "result": 0.43, "unit": "nM"},
      {"measurement": "fold higher apparent binding affinity", "setting": "human ROR1 (on cells) [8]", "result": "> 30", "unit": "fold"},
      {"measurement": "TDCC EC50, PBMCs + ROR1+ MDA-MB-231 cells", "setting": "human ROR1 (on cells) [9]", "result": 0.048, "unit": "nM"},
      {"measurement": "fold lower apparent binding affinity", "setting": "[10]", "result": "~4", "unit": "fold"}
    ]}
  ]
}
